Assay results taken from article doi:10.1101/2025.04.25.650734 (bioRxiv, 2025).

How the values were obtained:
Assay in all cases: single-particle TIRF colocalisation with photobleaching step counting
[1] = molecular target: mTFP-K-Q, dimer of a wild type Kir2.1 subunit linked to a Kir2.1-K49Q subunit
[2] = molecular target: mTFP-K-K, dimer of linked wild type Kir2.1 subunits
[3] = molecular target: mTFP-K-K-K-K, linked tetramer of wild type Kir2.1 subunits
[4] = molecular target: mTFP-K-Q-K-Q tetramer of concatenated Kir2.1 subunits
[5] = molecular target: mTFP-Q-K-K-Q tetramer of concatenated Kir2.1 subunits
[6] = molecular target: mTFP-Q-K-Q-Q tetramer of concatenated Kir2.1 subunits
[7] = molecular target: tetrameric Kir2.1 construct with three SUMO1 binding sites
[8] = molecular target: the molecule itself

Q: For “mTFP-K-Q, dimer of a wild type Kir2.1 subunit linked to a Kir2.1-K49Q subunit”, which stoichiometry N [1] is on record?
A: 2

Q: “mTFP-K-K, dimer of linked wild type Kir2.1 subunits” was tested. Which stoichiometry N [2] did it give?
A: 2

Q: “mCherry-SUMO1 (from UniProt P63165-1 1-97) (natural protein)” was tested. Which stoichiometry N (SUMO1 monomers per channel) [2] did it give?
A: 2

Q: What about the stoichiometry N (SUMO1 monomers per channel) [3] of the same molecule?
A: 2

Q: What about the stoichiometry N (SUMO1 monomers per channel) [1] of the same molecule?
A: 2

Q: What about the stoichiometry N (SUMO1 monomers per channel) [4] of the same molecule?
A: 2

Q: What about the stoichiometry N (SUMO1 monomers per channel) [5] of the same molecule?
A: 1

Q: What about the stoichiometry N (SUMO1 monomers per channel) [6] of the same molecule?
A: 1

Q: What about the stoichiometry N (SUMO1 monomers per channel) [7] of the same molecule?
A: 2

B1: mTFP1-tagged Kir2.1 (natural protein)
chain: MGSVRTNRYSIVSSEEDGMKLATMAVANGFGNGKSKVHTRQQCRSRFVKKDGHCNVQFINVGEKGQRYLADIFTTCVDIRWRWMLVIFCLAFVLSWLFFGCVFWLIALLHGDLDASKESKACVSEVNSFTAAFLFSIETQTTIGYGFRCVTDECPIAVFMVVFQSIVGCIIDAFIIGAVMAKMAKPKKRNETLVFSHNAVIAMRDGKLCLMWRVGNLRKSHLVEAHVRAQLLKSRITSEGEYIPLDQIDINVGFDSGIDRIFLVSPITIVHEIDEDSPLYDLSKQDIDNADFEIVVILEGMVEATAMTTQCRSSYLANEILWGHRYEPVLFEEKHCYKVDYSRFHKTYEVPNTPLCSARDLAEKKYILSNANSFCYENEVALTSKEEEDSENGVPESTSTDSPPGIDLHNQASVPLEPRPLRRESEI
Q: Which “stoichiometry N” value [8] does the source give for B1 here?
A: 4
